# ± gives the standard deviation of the averaged measurements.
# Tested on: ATP
# Test: switch fluorescence ratio, 500 uM ATP over buffer (Cy3 cluster intensity, sum of 5 cycles each) (fold (ratio)); higher = stronger signal-on switching upon ATP binding; sequences stand for … in TCGTCGGCAGCGTCAGATGTGTATAAGAGACAGTTTTTTTTTTTTTTTTTTTTTTTTT…TC
# Conditions: aptamer strand: ATP DNA aptamer (quencher-CACCTGGGGGAGTATTGCGGAGGAAGG + anchor), 100 nM annealed; ATP concentration: 500 uM
# How it was run: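 Between each of five buffer/ATP cycles, the flow-cell was stripped with NaOH and re-annealed. Each cycle imaged Cy3-labelled switching-strand clusters, annealed to 100 nM quencher-labelled ATP aptamer on a modified Illumina MiSeq flow-cell, first in selection buffer and then after 15 min with 500 uM ATP at 22 °C. The fluorescence ratio is summed target-cycle over summed buffer-cycle Cy3 intensity per cluster, averaged per switch-domain sequence, with clusters outside 100-1000 RFU excluded.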
# 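Note: ATP exposure 15 min at 22 °C before imaging.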
row,Sequence,switch fluorescence ratio
1,TAGAAGCCGG,0.98897 ± 0.00029
2,TAGAAGGGCC,0.976 ± 0.02
3,TAGAAGGTGG,1.04 ± 0.073
4,TAGAATCAGG,1.055 ± 0.0011
5,TAGAATCCG,1.003 ± 0.009
6,TAGAATTATC,1.017 ± 0.0056
7,TAGAATTGGT,0.983 ± 0.016
8,TAGACAAAAA,1.08 ± 0.12
9,TAGACATCCA,1.048 ± 0.0045
10,TAGACGCTCA,1.105 ± 0.0057
11,TAGACGGGCT,0.9797 ± 0.0025
12,TAGACTATGG,1.04 ± 0.023
13,TAGACTGGTT,0.992 ± 0.018
14,TAGACTTTGG,0.968 ± 0.025
15,TAGAGACGGA,1.0278 ± 0.001
16,TAGAGATCTG,0.996 ± 0.014
17,TAGAGCTGCA,1.02 ± 0.026
18,TAGAGCTTAG,0.9812 ± 0.0037
19,TAGAGGAG,1.01 ± 0.05
20,TAGAGGATGC,0.998 ± 0.07
21,TAGAGGCGAA,1 ± 0.011
22,TAGAGGCGTT,0.986 ± 0.012
23,TAGAGGGGCA,0.979 ± 0.011
24,TAGAGGGGGT,0.998 ± 0.039
25,TAGAGGTGGG,1.21 ± 0.34

row,Sequence,switch fluorescence ratio
1,TAGAGTGATG,0.943 ± 0.013
2,TAGAGTTCTC,1.01 ± 0.013
3,TAGAGTTTTA,0.972 ± 0.022
4,TAGATAGAAC,0.976 ± 0.054
5,TAGATCCTTT,1.03 ± 0.027
6,TAGATCGAAC,1.02 ± 0.024
7,TAGATGCGGT,1.01 ± 0.032
8,TAGATGTTTA,1.32 ± 0.6
9,TAGATGTTTT,0.986 ± 0.035
10,TAGATTGTAA,1.05 ± 0.11
11,TAGATTGTTT,0.998 ± 0.021
12,TAGATTTCTG,0.989 ± 0.025
13,TAGCAGTCAA,1.02 ± 0.02
14,TAGCCAAGGG,0.994 ± 0.053
15,TAGCCCGGTG,1.47 ± 0.53
16,TAGCCCTTTT,0.973 ± 0.01
17,TAGCGAAGTG,0.929 ± 0.061
18,TAGCGAGCGC,0.988 ± 0.068
19,TAGCGCGGGA,1 ± 0.016
20,TAGCGGCGTC,1 ± 0.098
21,TAGCGGGCGC,0.986 ± 0.032
22,TAGCGGGGAC,1.07 ± 0.037
23,TAGCGGGGCG,0.9881 ± 0.0061
24,TAGCGGGGGC,1.02 ± 0.05
25,TAGCGGGTTC,1.055 ± 0.0048

row,Sequence,switch fluorescence ratio
1,TAGCGGTCTC,1.03 ± 0.032
2,TAGCGTAGAA,0.993 ± 0.046
3,TAGCTAAATT,0.99 ± 0.012
4,TAGCTAATCC,1.08 ± 0.015
5,TAGCTAGGTG,1.62 ± 0.05
6,TAGCTCGGCT,0.95364 ± 0.00022
7,TAGCTCGGGC,1.03 ± 0.019
8,TAGCTCTAGT,1.016 ± 0.0044
9,TAGCTGATGT,1.03 ± 0.02
10,TAGCTTGTGG,0.9912 ± 0.0062
11,TAGGAAAAAT,1.09 ± 0.19
12,TAGGAAAGTG,1.03 ± 0.054
13,TAGGAACAGC,0.98 ± 0.012
14,TAGGAATCCA,0.999 ± 0.012
15,TAGGACCAGC,0.98 ± 0.012
16,TAGGACGTGC,0.9627 ± 0.0032
17,TAGGACTAGA,0.9597 ± 0.0039
18,TAGGAGCGAT,1.15 ± 0.031
19,TAGGAGGGCT,0.985 ± 0.049
20,TAGGAGGGGT,0.999 ± 0.022
21,TAGGAGGTCC,0.96 ± 0.081
22,TAGGAGGTGG,1.03 ± 0.041
23,TAGGAGGTTC,0.988 ± 0.021
24,TAGGAGTGGG,1 ± 0.01
25,TAGGAGTTAG,1 ± 0.047

row,Sequence,switch fluorescence ratio
1,TAGGAGTTGC,0.971 ± 0.052
2,TAGGAGTTTG,0.9894 ± 0.0046
3,TAGGATACTT,0.9769 ± 0.0016
4,TAGGATGAAG,1.03 ± 0.011
5,TAGGATGGAG,0.97358 ± 0.00078
6,TAGGATGGGC,1.04 ± 0.04
7,TAGGATGGGG,1 ± 0.032
8,TAGGATGTAT,0.9864 ± 0.0088
9,TAGGATTATA,0.964 ± 0.021
10,TAGGATTGTA,0.9806 ± 0.0089
11,TAGGCAACGA,1.04 ± 0.063
12,TAGGCAGGGT,1.56 ± 0.78
13,TAGGCATTGG,0.995 ± 0.014
14,TAGGCATTTT,1 ± 0.023
15,TAGGCCTTAC,1.43 ± 0.54
16,TAGGCGTGGT,1.01 ± 0.017
17,TAGGCTATAT,1.01 ± 0.042
18,TAGGCTGCTG,0.988 ± 0.021
19,TAGGCTTTCG,0.9957 ± 0.0076
20,TAGGCTTTGG,0.97 ± 0.0099
21,TAGGCTTTGT,1.01 ± 0.021
22,TAGGGAAAGA,1 ± 0.014
23,TAGGGAAGAT,1.07 ± 0.013
24,TAGGGACTGG,0.996 ± 0.016
25,TAGGGAGGGC,1.03 ± 0.041

row,Sequence,switch fluorescence ratio
1,TAGGGATTTG,1.01 ± 0.014
2,TAGGGATTTT,0.986 ± 0.018
3,TAGGGCATCG,1.01 ± 0.03
4,TAGGGCATGT,0.9798 ± 0.0026
5,TAGGGCATTG,1.01 ± 0.012
6,TAGGGCCAAC,1.016 ± 0.0092
7,TAGGGCGACT,1.04 ± 0.049
8,TAGGGCGCGT,0.9947 ± 0.0094
9,TAGGGCGGTT,0.98 ± 0.046
10,TAGGGCTTAG,1.02 ± 0.032
11,TAGGGGACAA,1 ± 0.035
12,TAGGGGAGGA,0.993 ± 0.035
13,TAGGGGCCTG,0.9831 ± 0.0098
14,TAGGGGCTTC,0.979 ± 0.018
15,TAGGGGGAGT,0.962 ± 0.059
16,TAGGGGGCAC,1 ± 0.025
17,TAGGGGGGCA,0.991 ± 0.041
18,TAGGGGGGGG,1.02 ± 0.073
19,TAGGGGGGTG,1.02 ± 0.025
20,TAGGGGGTAC,1.31 ± 0.58
21,TAGGGGGTTG,0.987 ± 0.027
22,TAGGGGGTTT,0.99 ± 0.032
23,TAGGGGTAGT,1.01 ± 0.033
24,TAGGGGTCAA,0.99815 ± 0.0002
25,TAGGGGTGAT,1.02 ± 0.047

row,Sequence,switch fluorescence ratio
1,TAGGGTACCG,1.06 ± 0.032
2,TAGGGTTGGA,1 ± 0.018
3,TAGGGTTGTG,0.9838 ± 0.0033
4,TAGGTAAAGA,0.98 ± 0.021
5,TAGGTAGATG,1.02 ± 0.018
6,TAGGTAGGGT,1.04 ± 0.073
7,TAGGTATGCG,1.18 ± 0.037
8,TAGGTCGCCA,1.04 ± 0.011
9,TAGGTCTGCA,1.033 ± 0.0058
10,TAGGTCTGGG,1.01 ± 0.036
11,TAGGTGGGGG,1.01 ± 0.039
12,TAGGTGGGGT,0.971 ± 0.016
13,TAGGTGTGTA,0.984 ± 0.031
14,TAGGTGTTGC,1 ± 0.023
15,TAGGTTCCGG,0.993 ± 0.034
16,TAGGTTCCTT,0.986 ± 0.035
17,TAGGTTGGGG,1.005 ± 0.0065
18,TAGGTTGTCT,1.03 ± 0.036
19,TAGGTTTAAT,0.992 ± 0.036
20,TAGGTTTAGG,0.987 ± 0.013
21,TAGGTTTGGC,1.03 ± 0.024
22,TAGGTTTTCG,0.98974 ± 0.00052
23,TAGGTTTTTG,1.01 ± 0.058
24,TAGTAACGGT,0.996 ± 0.053
25,TAGTAAGGGG,0.969 ± 0.051

row,Sequence,switch fluorescence ratio
1,TAGTAAGTTT,0.998 ± 0.012
2,TAGTAGAGTT,1 ± 0.013
3,TAGTAGCCTT,1.03 ± 0.022
4,TAGTAGGGCA,1.01 ± 0.033
5,TAGTATGAGG,0.976 ± 0.021
6,TAGTATGGCG,1.04 ± 0.088
7,TAGTATGGGA,0.968 ± 0.013
8,TAGTATTTAT,1.02 ± 0.044
9,TAGTCAGAAT,0.967 ± 0.012
10,TAGTCAGAGG,1.01 ± 0.012
11,TAGTCCCCCC,1.21 ± 0.2
12,TAGTCGATGC,1.03 ± 0.034
13,TAGTCGCTCC,1.03 ± 0.034
14,TAGTGAACTT,1.01 ± 0.0054
15,TAGTGAAGGG,0.9974 ± 0.0061
16,TAGTGATGCG,0.967 ± 0.025
17,TAGTGCCTGT,0.995 ± 0.028
18,TAGTGCGGTA,1.036 ± 0.0022
19,TAGTGGAAAC,0.9885 ± 0.0015
20,TAGTGGGGGC,1.01 ± 0.044
21,TAGTGGGGTA,0.98 ± 0.032
22,TAGTGGGTCC,1.02 ± 0.037
23,TAGTGGGTTA,0.974 ± 0.023
24,TAGTGGGTTG,1 ± 0.021
25,TAGTGTATCG,0.993 ± 0.045

row,Sequence,switch fluorescence ratio
1,TAGTGTCTTT,0.993 ± 0.014
2,TAGTGTGTTG,0.996 ± 0.011
3,TAGTGTTGGG,0.9837 ± 0.0015
4,TAGTTAACTT,1.01 ± 0.021
5,TAGTTAATCG,0.968 ± 0.017
6,TAGTTACGAT,1.04 ± 0.012
7,TAGTTATGAG,1.12 ± 0.19
8,TAGTTATGGG,0.998 ± 0.044
9,TAGTTCGTTG,0.9799 ± 0.0081
10,TAGTTGAACA,1.01 ± 0.021
11,TAGTTGATGT,1.026 ± 0.008
12,TAGTTGGATT,0.972 ± 0.038
13,TAGTTGGGGC,1.01 ± 0.026
14,TAGTTGGGTT,0.986 ± 0.041
15,TAGTTGTAAA,1.03 ± 0.075
16,TAGTTGTTCC,1.07 ± 0.07
17,TAGTTGTTCT,0.962 ± 0.022
18,TAGTTTCTGG,0.965 ± 0.02
19,TAGTTTGGAA,0.984 ± 0.04
20,TAGTTTGGAT,1.01 ± 0.026
21,TAGTTTGGCA,0.985 ± 0.037
22,TAGTTTGGTT,0.9887 ± 0.0052
23,TAGTTTGTTT,1.02 ± 0.074
24,TATAAAACAC,1.02 ± 0.013
25,TATAAAACGG,1.14 ± 0.045

# Source: the supplement of paper PMC10126150
